Data from the RNAGym collection of RNA variant scans (doi:10.1073/pnas.2313332121).

B1: TPR t1 (parent)
chain: GACCAAUCUGCCCUCAGAGCUCGAGAACAUCUUCGGAUGCAGAGGAGGCAGGCUUCGGUGGCGCGAUAGCGCCAACGUCCUCAACCUCCAAUGCAUCCCACCACAUGAUGAUGCCUGAAGAGCCUUGGUUUUUUG

Variants of: B1
Assay: polymerase ribozyme fitness, log enrichment relative to wild type (log ratio); higher = more active; in vitro selection for triplet polymerase activity
Summary of the method: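 Fitness is a logarithmic measure of how a genotype enriched relative to the wild type, with replicate averages weighted by inverse variance. The logarithm uses base 2, and enrichment came from Illumina sequencing of input and output libraries. Those libraries were PCR-built, transcribed mutants of each subunit of a heterodimeric triplet polymerase ribozyme, passed through one triplicate in vitro selection round that included frozen incubation at −7 °C, gel excision of extended constructs and streptavidin-bead capture. Genotypes were kept only if they had ≥10 input reads and ≥1 read per output.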

Variant	polymerase ribozyme fitness (log ratio)
GACCAAUCUGCCCUCAGAGCUCGAGAACAUCUUCGGACGCAGAGGAUGCAGGCUUCGGUGCCGCGAUAGCGCCAACGUCCUCAACCUCCAAUGCCUCCCACCACAUGAUGAUGCCUGAAGAGCCUUGGUUUUUUG [U38C G47U G61C A95C]	-3.89
GACCAAUCUGCCCUCAGAGCUCGAGAACAUCUUCGGACGCAGAGGAGGCAGGCUUUGGUGGCGCGAUAGCGCCAACGUCCUCAGCCUCCAAUGCAUCCCACCACAUGAUGAUGCCUGAAGAGCCUUGGUUUUUUG [U38C C56U A84G]	-1.53
GACCAAUCUGCCCUCAGAGCUCGAGAACAUCUUCGGAGGCAGGGGAGGCAGGCUUCGGUGGCGCGAUAGCGCCAACGUCCUCAACCUCCAAUGCAUCCCACCACAUGAUGAUGCCUGAAGAGCCUUGGUUUUUUG [U38G A43G]	-2.91
GACCAAUCUGCCCUCAGAGCUCGAGAACAUCUUCGGAGGCAGUGGAGUCAGGCUUCGGUGGCGCGAUAGCGCCAACGUCCUCAACCUGCAAUGCAUCCCACCACAUGAUGAUGCCUGAAGAGCCUUGGUUUUUUG [U38G A43U G48U C88G]	-5.48
GACCAAUCUGCCCUCAGAGCUCGAGAACAUCUUCGGACGCAGAGGAGGCAGGCUUCUGUGGCGCGAUAGCGCCAACGUCCUCAACCUCCAAUGCAUCCCACCACAUGAUGAUGCCUCAAGAGCCUUGGUUUUUUG [U38C G57U G117C]	-5.11
GACCAAUCUGCCCUCAGAGCUCGAGAACAUCUUCGGAGGCAGAGGAGGCAGGCUUCGGUGGCGCGAUAGCGUCAACGUCCUCAACCUCCAAUGCAUCCCACCAUAUGAUGAUGCCUGAAGAGCCUUGGUUUUUUG [U38G C72U C104U]	-1.14
GACCAAUCUGCCCUCAGAGCUCGAGAACAUCUUCGGAAGCAGAGGAGGCAGGCUUCGGUGGCGCGAUAGCGCCAACGUCCUCAACCUCCAAUGCAUCCCACCACAUGAUGAUGCCUGAAGAGCCUUGGUUUCUUG [U38A U132C]	-0.329
GACCAAUCUGCCCUCAGAGCUCGAGAACAUCUUCGGACGCAGAGGAGGCAGGCUUCGGUGGCGCGAUAGCGCCAACGUCCUCAACCUCCCAUGCAUCCCACCACAUGAUGAUGCCUGAAGAGCCUUGGUUUUUUG [U38C A90C]	-1.49
GACCAAUCUGCCCUCAGAGCUCGAGAACAUCUUCGGACGCAGAGGAGGCAGGCUUCAGUGGCGCGAUAUCGCCAACGUCCUCAACCUCCAAUGCAACCCACCACAUGAUGAUGCCUGAAGAGCCUUGGUUUUUUG [U38C G57A G69U U96A]	-3.58
GACCAAUCUGCCCUCAGAGCUCGAGAACAUCUUCGGAGGCAGAGGAGGCAGGCUUCGGUGUCGCGAUAGCGCCAACGUCCUCAACCUCCAAUGCAUCCCACCACAUGAUGAUGCCCGAAGAGCCUUGGUUUUUUG [U38G G61U U116C]	-1.78
GACCAAUCUGCCCUCAGAGCUCGAGAACAUCUUCGGAGGCAGAGGAGGAAGGCCUCGGUGGCGCGAUAUCGCCAACGUCCUCAACCUCCAAUGCAUCCCACCAAAUGAUGAUGCCUGAAGAGCCUUGGUUUUUUG [U38G C49A U54C G69U C104A]	-0.856
GACCAAUCUGCCCUCAGAGCUCGAGAACAUCUUCGGAAGCAGAGGAGGCAGGCUUCGGUGGCGCGAUAGCGCCAACGUCCUCAACCUCCAAUGCAUCCCACCACAUGAUGAUCCCUGAAGAGCCUUGGUUUUUUG [U38A G113C]	-2.81
GACCAAUCUGCCCUCAGAGCUCGAGAACAUCUUCGGAUACAGAGGUGGCAGGCUUCGGUGGCGCGAUAGCGCCAACGACCUCAACCUCCAAUGCAUCCCACCACAUGAUGAUGCCUGAAGAGCCUCGGUUUUUUG [G39A A46U U78A U126C]	-3.53
GACCAAUCUGCCCUCAGAGCUCGAGAACAUCUUCGGAAGCAGAGGAGGCAGGCUUCGGUGGCGCGAUAGCGCCAACGUCCUCAACCUCCAAUGCAUCCCACCACAUGAUGAUGCCUGAAGAGCCUUGGUUUUAUG [U38A U133A]	-0.815
GACCAAUCUGCCCUCAGAGCUCGAGAACAUCUUCGGAGGCAGAGGAGGCAGGCUUCGGUGGCGCGAUAUCGCCAACGUCCUCAACCUCCAAUGCAUCCCACCACAUGAUGAUGCCUGAAGAGCCUUGGUUUUUUG [U38G G69U]	-0.236
GACCAAUCUGCCCUCAGAGCUCGAGAACAUCUUCGGAAGCAGAGGAGGCAGGCGUCGGUGGCGCGAUAGCGCCAACGUCCUCAACCUCCAAUGCAUCCCACCACAUGAUGAUGCCUGAAGAGCCUUGGUUUUUUG [U38A U54G]	-0.848
GACCAAUCUGCCCUCAGAGCUCGAGAACAUCUUCGGAAGCAGAGGAGGCAGGCUUCGCUGGCGCGAUAGCGCCAACGUCCUCAACCUCCAAUGCAUCCCACCACAUGAUGAUGCAUGAAGAGCCUUGGUUUUUUG [U38A G58C C115A]	-1.1
GACCAAUCUGCCCUCAGAGCUCGAGAACAUCUUCGGAGGCAGAGGUGGCAGGCUUCGGUGACGCGAUAGCGCCAACGUCCUCAACCACCAAUGCAUCCCACCACAUGAUGAUGCCUGAAGAGCCUUGGUUUUUUG [U38G A46U G61A U87A]	-0.463
GACCAAUCUGCCCUCAGAGCUCGAGAACAUCUUCGGAGGCUGAGGAGGCAGGGUUCGGUGGAGCGAUAGCGCCAACGUCCUCAACCUCCAAUGCAUCCCACCACAUGAUGAUACCUGACGAGCCUUGGUUUUUUG [U38G A41U C53G C62A G113A A119C]	-5.91
GACCAAUCUGCCCUCAGAGCUCGAGAACAUCUUCGGAUACAGAGGUGGCAGGCUUCGGUGGCGCGAUAGCGCCAACGUCCUCAACCUCCAAUGCAUCCCACCACAAGAUGAUGCCUGAAGAGCCUUGGUUUUUUG [G39A A46U U106A]	-2.02
GACCAAUCUGCCCUCAGAGCUCGAGAACAUCUUCGGAGGCAGAGGAGGCAGGCUUCGGUGGCGCGAUACCGCCAACGUCCUCAACCUCCAAUGCAUCCCACCACAUGAUGACGCCUGAAGAGCCUUGGUUUUUUG [U38G G69C U112C]	-1.03

Variant	polymerase ribozyme fitness (log ratio)
GACCAAUCUGCCCUCAGAGCUCGAGAACAUCUUCGGACGCAGGGGAGGCAGGCUUCGGUGGCGCGAUAGCGCUAACGUCCUCAACCUCCAAUACAUCCCACCACAUGAUGAUGCCUGAAGAGCCUUGGUUUUUUG [U38C A43G C73U G93A]	-4.56
GACCAAUCUGCCCUCAGAGCUCGAGAACAUCUUCGGACGCAGAGGAGGCUGGCUUCGGUGGCGCGAUAGCGCCAACGUCCUCAACCUCCAAUGCAUCCCACCACAUGAUGAUGCCUGAAGAGCCUUGGUUUUUUG [U38C A50U]	-0.941
GACCAAUCUGCCCUCAGAGCUCGAGAACAUCUUCGGACGCAUAGGAGGCAGGCUUCGGUGGGGCGAUAGCGCCAACGUCCUCAACCUCCAAUGCAUCCCACCACAUGAUGAUGCCUGAAGAGCCUUGGUUUUUUG [U38C G42U C62G]	-5.61
GACCAAUCUGCCCUCAGAGCUCGAGAACAUCUUCGGAGGCAGAGGAGGCAGGCUUCGGUGGCGUGAUAGCGCCAACGUCGUCAACCUCCAAUGCAUCCCACCACAUGAUGAUGCCUGAAGAGCCUUGGUUCUUUG [U38G C64U C80G U131C]	-6.8
GACCAAUCUGCCCUCAGAGCUCGAGAACAUCUUCGGAGGCAGAGGAGGCAGGCGUCGGUGGCGUGAUAGCGCCAACGUCCUCAACCUCCAAUGCAUCCCACCACAUGAUGAUGCCUGAAGAGCCUUGGUUUUUUG [U38G U54G C64U]	-4.46
GACCAAUCUGCCCUCAGAGCUCGAGAACAUCUUCGGAGGCAGAGGAGGCAGGCUUCGGUGGCGCGAUAGCGCCAACGUCCUUAACCUCCAAUGCAUCCCACCACAUGAUGAUGCCUGAAGAGCCUUGGUUUUUUG [U38G C82U]	-0.857
GACCAAUCUGCCCUCAGAGCUCGAGAACAUCUUCGGAGGCAGAGGAGGCAGGCUUCGGUGGCGCGAUAGCGCCAACGUCCUCAACCUCCAAUGCAUCCCACCACAUGAUGAUGCCCGAAGAGCCUUGGUUUUUUG [U38G U116C]	-2.06
GACCAAUCUGCCCUCAGAGCUCGAGAACAUCUUCGGACGCAGAGAAGGCAGGCUUCGGUGGCGCGAUAGCGCCAACGUCCUCAACCUCCAAUGCAUCCCACCACAUGAUGAUCCCUGAAGAGCCCUGGUUUUUUG [U38C G45A G113C U125C]	-3.38
GACCAAUCUGCCCUCAGAGCUCGAGAACAUCUUCGGAAGCAGAGGAGGCAGGCUUCGGUGGCGCGAUAACGCCAACGUCCUCAACCUCCAAUGCAUCCCACCACAUGAUGAUGCCUGAAGAGCCUUGGUUUUUUG [U38A G69A]	-4.51
GACCAAUCUGCCCUCAGAGCUCGAGAACAUCUUCGGACGCAAAGGAGGCAGGCUUCGGUGGCGCGAUAGCGCCAACGUCCUCAACCUCCAAUGCAUCCCACCACAUGAUGAUGCCUGUAGAACCUUGGUUUUUUG [U38C G42A A118U G122A]	-3.31
GACCAAUCUGCCCUCAGAGCUCGAGAACAUCUUCGGAGGCAGAGGAGGCAGGCUUCGGUGGCGCGAUAGCGCCAACGUCCUCAACCUCCAAUGCAUCCCACCACAUGAUGAUGCGUGAAGAGCCUUGGUUUUUUG [U38G C115G]	-3.06
GACCAAUCUGCCCUCAGAGCUCGAGAACAUCUUCGGAGGCAGAGGAGGGAGGCUUCGGUGGCGCGAUAGCGCCAACGUCCUCAACCUCCAAUGCAUCCCACCACAUGAUGAUGCCUGAAGAGCCUUGGUUUUUUG [U38G C49G]	-2.14
GACCAAUCUGCCCUCAGAGCUCGAGAACAUCUUCGGAGGCAGAGGAGGCAGGCUUCGGUGGCGCGAUAGCGCCAACGUCCUCAACCUCAAAUGCAACCCACCACAUGAUGAUGGCUGAAGAGCCUUGGUUUUUUG [U38G C89A U96A C114G]	-5.44
GACCAAUCUGCCCUCAGAGCUCGAGAACAUCUUCGGAGGCAGUGGAGGCAGGCUUCGGUGGCGCGAUAGCGCCAACGUCCUCAACCCCCAAUGCAUCCCACCACAUGAUGAUGCCUGAAGAGCCUUGGUUUUUUG [U38G A43U U87C]	-2.42
GACCAAUCUGCCCUCAGAGCUCGAGAACAUCUUCGGAUACAGUGGAGGCAGGCUUCGGUGGCGCGAUAGCGUGAACGUCCUCAACCUCCAAUGCAUCCCACCACAUGAUGAUGCGUGAAGAGCCUCGGUUUUUUG [G39A A43U C72U C73G C115G U126C]	-5.51
GACCAAUCUGCCCUCAGAGCUCGAGAACAUCUUCGGAUACAGAGGUGGCAGGCUUCGGUGGCGCGAUAGCGCCAACGUCCUCAACCUCCAAUGCAUCCCACCACAUGAUGAUGCCUGAAGAGCCUUGGUUUUUUG [G39A A46U]	-1.28
GACCAAUCUGCCCUCAGAGCUCGAGAACAUCUUCGGACGCAGAGGAGGCAGGCUUCGGUGGCGCGAUAGCGCCAACGUCCUCAACCUCCAAUGCAUCCCACCACAUGACGAUGCCUGAAGAGCCUUGGUUUUUUG [U38C U109C]	-4.71
GACCAAUCUGCCCUCAGAGCUCGAGAACAUCUUCGGAGGCAGAGGAGGCAGGCUUCGGUGGCGCGAUAGCGCCAACGUCCUCAACCUCCAAUGCAUCCCACCACAUGAUGAUGCCUGAAGAGCCUUGCUUUUUUG [U38G G128C]	-2.66
GACCAAUCUGCCCUCAGAGCUCGAGAACAUCUUCGGACGCAGAGGAGGCAGGUUUCGGUGGCGCGAUAGCGCCAACGUCCUCAACCUCCAAUGCAUCCCACCACAUGAUGAUGCCAGAAGGGCCUUGGUUUUUUG [U38C C53U U116A A121G]	0.589
GACCAAUCUGCCCUCAGAGCUCGAGAACAUCUUCGGAAGCAGAGGAGUCAGGCUUCGGUGGCGCGAUAGCGCCAACGUCCUCAACCUCCAAUGCAUCCCACCACAUGAUAAUGCCUGAAGAGCCUUGGUUUUUUG [U38A G48U G110A]	-3.21
GACCAAUCUGCCCUCAGAGCUCGAGAACAUCUUCGGAGGCAGAGGAGGCAGGCUUCGGUGGCGUGCUAGCGCCAACGUCCUCAACCUCCUCUGCAUCCCACCACAUGAUGAUGCCUGAAGAGCCUUGGUUUUUUG [U38G C64U A66C A90U A91C]	-5.32
